In patent US10215752:

Molecular target: His-tag GafD lectin (Escherichia coli) (UniProt Q47341)
Assay: concentration dependent nIR fluorescence loading curves, ks against concentration, GafD on Ni-NTA SWNT/chitosan sensor

His-tag GafD lectin (Escherichia coli), sequence (Q47341 23-200 limits assumed): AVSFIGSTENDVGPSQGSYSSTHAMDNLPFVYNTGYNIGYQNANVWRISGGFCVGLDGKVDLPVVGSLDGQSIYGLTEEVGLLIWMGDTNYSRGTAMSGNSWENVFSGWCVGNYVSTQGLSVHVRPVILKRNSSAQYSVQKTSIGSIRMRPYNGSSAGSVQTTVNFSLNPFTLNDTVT

Kd: 4 µM
koff: 0.0082 s⁻¹
Substance: murine produced anti His-tag antibody (Sigma H1029)
